T1: peanut (Arachis hypogaea) allergen Ara h 6 (Arachis hypogaea) (UniProt Q647G9)
T1 sequence: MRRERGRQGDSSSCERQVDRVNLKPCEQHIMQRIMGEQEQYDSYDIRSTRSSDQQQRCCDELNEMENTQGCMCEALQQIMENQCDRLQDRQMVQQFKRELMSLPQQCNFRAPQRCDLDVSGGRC

B1: human IgE mAb 15C2 (antibody, from a related filing, V domains shown)
VH: QVQLVQSESELKKPGASVKISCKASGYDLTKYAMNWVRQAPGQGLEWMGWINTNTAKPTYAQGFTGRFVFSLDTSVRTIYLEISNLKAEDTAIYYCSRDGSGASWGQGTLVTVSS
VL: DIQMTQSPSTLSASVGDRVTITCRASQNIGRWLAWHQQKPGKAPKVLITKASNLESGVPSRFTGSGSGTDFTLTITSLQPDDFATYYCQQYTTYSGTFGQGTRVEIK
B2: human IgE mAb 26A5 (antibody, from a related filing, V domains shown)
VH: QVQLVQSGSELRKPGASVKVSCKASGYTFTKYGMNWVRQAPGQGLEWMGWINTNTAKPTYAQDFTGRFVFSLDTSVNTAYLEISGLKAEDTAVYYCATDGSEGSWGQGTLVTVSS
VL: DIQMTQSPSTLSASVGDRVTITCRASQSIGTWLAWHQQKPGTAPKVLIYKASNLKSGVPSRFSGSGSGTDFTLTISSLQPDDVATYYCQQYNTYSGTFGQGTRVEIK
B3: human IgE mAb 20M10 (antibody, from a related filing, V domains shown)
VH: EVQLVESGGGLVKPGGSLRLSCTVSGFTFNMHSMNWVRQAPGKGLEWVSFISSTSTYIYYPDSVKGRFTVSRDNSKNSLYLQMTSLRAEDTAVYYCVRRGRGGAARALDNWGQGTLVTVSS
VL: SYVLPQTPSLSVAPGQTATISCGGNNTGSKSVHWYQQKPGQAPLLVVYDNSDRPSGIPERFSGSNSGNTATLTLSRVEAEDEADYYCQVWDSTIDHVIFGGGTKLTVL
B4: human IgE mAb 21C10 (antibody, from a related filing, V domains shown)
VH: EVQLVESGGGLVKPGGSLRLSCAASGFILSRSSMSWVRQAPGKGLEWVSYISSTSSHIYYADSLKGRFTISRDNTENSVYLQMSSLRAEDTGVYYCARKTNGAWFLDLWGRGTLVTVSS
VL: QSVLTQPPSVSGAPGQRVTISCTGSSSNIGAGSDVHWYQQFPGSAPHVLIYGNNQRPSGVPDRFSASKSGTSASLAITGLQADDEADYYCQSYDYDLSGSWVFGGGTKLTVL
B5: human IgE mAb 8F3 (antibody, from a related filing, V domains shown)
VH: QLQLQESGPGLVKPSETLSLTCTVSDASIDTPSYFWSWIRQPPGKGLEWIGSIYYTGNKYSNPSLKSRVTMSVDTPKRQFSLRLSSVTAADTAVYYCARYVDYVWLRAFDIWGQGTRVTVSS
VL: EIVLTQSPATLSLSPGERATLSCRASPSAGRFLAWYQQRPGQAPRLLIYDASKRATDTPARFSGSGSGTDFNLTIASLEPEDFAVYYCQHRSNWPLTFGGGTKVEIK
B6: human IgE mAb 1A8 (antibody, from a related filing, V domains shown)
VH: QLQLQESGPGLVKPSETLSLTCSVSDDSISTPSYFWTWIRQPPGKGLEWIASIYYTGTTYYNPSLKSRVTLSVDTPKRQFFLRLSSVTAADTAVYYCARYLDYVWLRAFDVWGQGAMVTVSS
VL: EIVLTQSPATLSLSPGERATLSCRASPSVGRFLAWYQQKPGQAPRLLIYDASQRATDIPARFSASGSGTDFTLTIDSLEPEDFAIYYCQHRSNWPVTFGGGTRVEIK

The target in this assay is T1, peanut (Arachis hypogaea) allergen Ara h 6 (Arachis hypogaea). The assay is described as follows: EC50 of IgE mAb on allergen, Table 1; method not stated.
B1 displayed an EC50 of 31.5 ng/mL.
As for B2, the figure is 10.1 ng/mL; as for B3, 5.3 ng/mL.
The same measure for B4: 3.2 ng/mL; for B5: 3.8 ng/mL; for B6: 5 ng/mL.

Usually EC50 stands for the concentration needed to bring the measured effect to its halfway point. A higher EC50 goes with weaker potency.

Source of the values: patent US20240390486A1.
